Laboratory results taken from patent US10472652B2, “Chemical engineering processes and apparatus for the synthesis of compounds” (TEEWINOT T[…], priority 2013, dated 2019).

T1: THCA synthase (Cannabis sativa, UniProt Q8GTB6)
T1 construct: His-tag (C); made in house; host or cells: Pichia pastoris (PichiaPink, pPink-HC vector), secreted into the medium; cell-free T3 supernatant used
T1 sequence (Q8GTB6 29-545): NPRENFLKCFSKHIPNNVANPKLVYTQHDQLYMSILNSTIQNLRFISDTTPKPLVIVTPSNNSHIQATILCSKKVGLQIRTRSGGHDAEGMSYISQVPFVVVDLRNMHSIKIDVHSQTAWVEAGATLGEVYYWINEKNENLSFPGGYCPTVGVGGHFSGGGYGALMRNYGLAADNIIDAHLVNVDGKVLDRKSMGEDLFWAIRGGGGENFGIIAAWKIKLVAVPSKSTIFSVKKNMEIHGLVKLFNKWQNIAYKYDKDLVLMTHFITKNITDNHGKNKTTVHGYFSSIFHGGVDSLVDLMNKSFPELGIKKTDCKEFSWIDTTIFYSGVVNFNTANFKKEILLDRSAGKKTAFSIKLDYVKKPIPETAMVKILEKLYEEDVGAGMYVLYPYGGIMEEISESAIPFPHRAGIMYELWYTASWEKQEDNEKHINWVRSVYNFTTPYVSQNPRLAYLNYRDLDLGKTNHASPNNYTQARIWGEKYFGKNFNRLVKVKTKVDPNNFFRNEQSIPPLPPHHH


Target: T1, THCA synthase
Test: catalytic activity of THCA synthase from independent colonies of transformed pPink yeast cells (conversion of CBGA to THCA)
Format: biochemical
Settings: 25 μl cell free supernatant of T3 sample, 100 mM citrate buffer, 10% DMSO, final pH 5.0, 2 hours at 30° C.
Procedure: After 24 hours a 100 μL of the cell sample was removed to which was added 100 μL of 40% methanol to induce enzyme production. This methanolic sample was then centrifuged at 12,000 rpm for 5 minutes and the supernatant and pellet were saved as the T1 sample. A second culture sample was obtained after a 48 hour incubation period and treated with methanol as described above. After centrifugation, the supernatant and pellet are saved as the T2 sample. At 72 hours the entire incubation mixture is treated with an appropriate volume of 40% methanol. The supernatant and pellet obtained from methanolic treatment of the culture after a 72 hour incubation period is labeled as T3. The T3 supernatant was spun through an Amicon 30 kD protein filter and analyzed for protein using an SDS-PAGE gel.
The catalytic activity of THCA synthase was measured by incubating 25 μl of the cell free supernatant from a T3 sample with 25 μl of a 1 mg/ml CBGA stock in 200 μl of a 100 mM citrate buffer at pH 4.8 having 10% DMSO for 2 hours at 30° C. The final concentration of CBGA in the reaction mixture was 0.1 mg/ml and the final pH is 5.0. Table 4 illustrates the data related to the catalytic activity of THCA synthase obtained from independent colonies of transformed pPink yeast cells, namely. pPink yeast cells that were transformed using linearized THCA synthase plasmids. Culture samples that converted greater than 20% of the substrate CBGA to product THCA were selected for scale up.

| Molecule | % Conversion of CBGA to THCA in reaction containing 0.1 mg/ml CBGA. [%] |
| --- | --- |
| Pme THC #5: cell free supernatant with THCA synthase from a pPink yeast colony transformed with Pme I linearized THCA synthase plasmid (protein, UniProt Q8GTB6 29-545, looked up, yeast culture supernatant, cell free supernatant with THCA synthase from a pPink yeast colony transformed with Pme I linearized THCA synthase plasmid) Tetrahydrocannabinolic acid …: NPRENFLKCFSKHIPNNVANPKLVYTQHDQLYMSILNSTIQNLRFISDTTPKPLVIVTPSNNSHIQATILCSKKVGLQIRTRSGGHDAEGMSYISQVPFVVVDLRNMHSIKIDVHSQTAWVEAGATLGEVYYWINEKNENLSFPGGYCPTVGVGGHFSGGGYGALMRNYGLAADNIIDAHLVNVDGKVLDRKSMGEDLFWAIRGGGGENFGIIAAWKIKLVAVPSKSTIFSVKKNMEIHGLVKLFNKWQNIAYKYDKDLVLMTHFITKNITDNHGKNKTTVHGYFSSIFHGGVDSLVDLMNKSFPELGIKKTDCKEFSWIDTTIFYSGVVNFNTANFKKEILLDRSAGKKTAFSIKLDYVKKPIPETAMVKILEKLYEEDVGAGMYVLYPYGGIMEEISESAIPFPHRAGIMYELWYTASWEKQEDNEKHINWVRSVYNFTTPYVSQNPRLAYLNYRDLDLGKTNHASPNNYTQARIWGEKYFGKNFNRLVKVKTKVDPNNFFRNEQSIPPLPPHHH | 32.5 |
| Pme THC(2) #42: cell free supernatant with THCA synthase from a pPink yeast colony transformed with Pme I linearized THCA synthase plasmid (protein, UniProt Q8GTB6 29-545, looked up, yeast culture supernatant, cell free supernatant with THCA synthase from a pPink yeast colony transformed with Pme I linearized THCA synthase plasmid) Tetrahydrocannabinolic acid …: NPRENFLKCFSKHIPNNVANPKLVYTQHDQLYMSILNSTIQNLRFISDTTPKPLVIVTPSNNSHIQATILCSKKVGLQIRTRSGGHDAEGMSYISQVPFVVVDLRNMHSIKIDVHSQTAWVEAGATLGEVYYWINEKNENLSFPGGYCPTVGVGGHFSGGGYGALMRNYGLAADNIIDAHLVNVDGKVLDRKSMGEDLFWAIRGGGGENFGIIAAWKIKLVAVPSKSTIFSVKKNMEIHGLVKLFNKWQNIAYKYDKDLVLMTHFITKNITDNHGKNKTTVHGYFSSIFHGGVDSLVDLMNKSFPELGIKKTDCKEFSWIDTTIFYSGVVNFNTANFKKEILLDRSAGKKTAFSIKLDYVKKPIPETAMVKILEKLYEEDVGAGMYVLYPYGGIMEEISESAIPFPHRAGIMYELWYTASWEKQEDNEKHINWVRSVYNFTTPYVSQNPRLAYLNYRDLDLGKTNHASPNNYTQARIWGEKYFGKNFNRLVKVKTKVDPNNFFRNEQSIPPLPPHHH | 27.6 |
| Pme THC(2) #1: cell free supernatant with THCA synthase from a pPink yeast colony transformed with Pme I linearized THCA synthase plasmid (protein, UniProt Q8GTB6 29-545, looked up, yeast culture supernatant, cell free supernatant with THCA synthase from a pPink yeast colony transformed with Pme I linearized THCA synthase plasmid) Tetrahydrocannabinolic acid …: NPRENFLKCFSKHIPNNVANPKLVYTQHDQLYMSILNSTIQNLRFISDTTPKPLVIVTPSNNSHIQATILCSKKVGLQIRTRSGGHDAEGMSYISQVPFVVVDLRNMHSIKIDVHSQTAWVEAGATLGEVYYWINEKNENLSFPGGYCPTVGVGGHFSGGGYGALMRNYGLAADNIIDAHLVNVDGKVLDRKSMGEDLFWAIRGGGGENFGIIAAWKIKLVAVPSKSTIFSVKKNMEIHGLVKLFNKWQNIAYKYDKDLVLMTHFITKNITDNHGKNKTTVHGYFSSIFHGGVDSLVDLMNKSFPELGIKKTDCKEFSWIDTTIFYSGVVNFNTANFKKEILLDRSAGKKTAFSIKLDYVKKPIPETAMVKILEKLYEEDVGAGMYVLYPYGGIMEEISESAIPFPHRAGIMYELWYTASWEKQEDNEKHINWVRSVYNFTTPYVSQNPRLAYLNYRDLDLGKTNHASPNNYTQARIWGEKYFGKNFNRLVKVKTKVDPNNFFRNEQSIPPLPPHHH | 29.1 |
| Pme THC(2) #36: cell free supernatant with THCA synthase from a pPink yeast colony transformed with Pme I linearized THCA synthase plasmid (protein, UniProt Q8GTB6 29-545, looked up, yeast culture supernatant, cell free supernatant with THCA synthase from a pPink yeast colony transformed with Pme I linearized THCA synthase plasmid) Tetrahydrocannabinolic acid …: NPRENFLKCFSKHIPNNVANPKLVYTQHDQLYMSILNSTIQNLRFISDTTPKPLVIVTPSNNSHIQATILCSKKVGLQIRTRSGGHDAEGMSYISQVPFVVVDLRNMHSIKIDVHSQTAWVEAGATLGEVYYWINEKNENLSFPGGYCPTVGVGGHFSGGGYGALMRNYGLAADNIIDAHLVNVDGKVLDRKSMGEDLFWAIRGGGGENFGIIAAWKIKLVAVPSKSTIFSVKKNMEIHGLVKLFNKWQNIAYKYDKDLVLMTHFITKNITDNHGKNKTTVHGYFSSIFHGGVDSLVDLMNKSFPELGIKKTDCKEFSWIDTTIFYSGVVNFNTANFKKEILLDRSAGKKTAFSIKLDYVKKPIPETAMVKILEKLYEEDVGAGMYVLYPYGGIMEEISESAIPFPHRAGIMYELWYTASWEKQEDNEKHINWVRSVYNFTTPYVSQNPRLAYLNYRDLDLGKTNHASPNNYTQARIWGEKYFGKNFNRLVKVKTKVDPNNFFRNEQSIPPLPPHHH | 27.7 |
| Pme THC(2) #41: cell free supernatant with THCA synthase from a pPink yeast colony transformed with Pme I linearized THCA synthase plasmid (protein, UniProt Q8GTB6 29-545, looked up, yeast culture supernatant, cell free supernatant with THCA synthase from a pPink yeast colony transformed with Pme I linearized THCA synthase plasmid) Tetrahydrocannabinolic acid …: NPRENFLKCFSKHIPNNVANPKLVYTQHDQLYMSILNSTIQNLRFISDTTPKPLVIVTPSNNSHIQATILCSKKVGLQIRTRSGGHDAEGMSYISQVPFVVVDLRNMHSIKIDVHSQTAWVEAGATLGEVYYWINEKNENLSFPGGYCPTVGVGGHFSGGGYGALMRNYGLAADNIIDAHLVNVDGKVLDRKSMGEDLFWAIRGGGGENFGIIAAWKIKLVAVPSKSTIFSVKKNMEIHGLVKLFNKWQNIAYKYDKDLVLMTHFITKNITDNHGKNKTTVHGYFSSIFHGGVDSLVDLMNKSFPELGIKKTDCKEFSWIDTTIFYSGVVNFNTANFKKEILLDRSAGKKTAFSIKLDYVKKPIPETAMVKILEKLYEEDVGAGMYVLYPYGGIMEEISESAIPFPHRAGIMYELWYTASWEKQEDNEKHINWVRSVYNFTTPYVSQNPRLAYLNYRDLDLGKTNHASPNNYTQARIWGEKYFGKNFNRLVKVKTKVDPNNFFRNEQSIPPLPPHHH | 32.5 |
| Pme THC(2) #2A: cell free supernatant with THCA synthase from a pPink yeast colony transformed with Pme I linearized THCA synthase plasmid (protein, UniProt Q8GTB6 29-545, looked up, yeast culture supernatant, cell free supernatant with THCA synthase from a pPink yeast colony transformed with Pme I linearized THCA synthase plasmid) Tetrahydrocannabinolic acid …: NPRENFLKCFSKHIPNNVANPKLVYTQHDQLYMSILNSTIQNLRFISDTTPKPLVIVTPSNNSHIQATILCSKKVGLQIRTRSGGHDAEGMSYISQVPFVVVDLRNMHSIKIDVHSQTAWVEAGATLGEVYYWINEKNENLSFPGGYCPTVGVGGHFSGGGYGALMRNYGLAADNIIDAHLVNVDGKVLDRKSMGEDLFWAIRGGGGENFGIIAAWKIKLVAVPSKSTIFSVKKNMEIHGLVKLFNKWQNIAYKYDKDLVLMTHFITKNITDNHGKNKTTVHGYFSSIFHGGVDSLVDLMNKSFPELGIKKTDCKEFSWIDTTIFYSGVVNFNTANFKKEILLDRSAGKKTAFSIKLDYVKKPIPETAMVKILEKLYEEDVGAGMYVLYPYGGIMEEISESAIPFPHRAGIMYELWYTASWEKQEDNEKHINWVRSVYNFTTPYVSQNPRLAYLNYRDLDLGKTNHASPNNYTQARIWGEKYFGKNFNRLVKVKTKVDPNNFFRNEQSIPPLPPHHH | 27.2 |
| Pme THC(2) #25: cell free supernatant with THCA synthase from a pPink yeast colony transformed with Pme I linearized THCA synthase plasmid (protein, UniProt Q8GTB6 29-545, looked up, yeast culture supernatant, cell free supernatant with THCA synthase from a pPink yeast colony transformed with Pme I linearized THCA synthase plasmid) Tetrahydrocannabinolic acid …: NPRENFLKCFSKHIPNNVANPKLVYTQHDQLYMSILNSTIQNLRFISDTTPKPLVIVTPSNNSHIQATILCSKKVGLQIRTRSGGHDAEGMSYISQVPFVVVDLRNMHSIKIDVHSQTAWVEAGATLGEVYYWINEKNENLSFPGGYCPTVGVGGHFSGGGYGALMRNYGLAADNIIDAHLVNVDGKVLDRKSMGEDLFWAIRGGGGENFGIIAAWKIKLVAVPSKSTIFSVKKNMEIHGLVKLFNKWQNIAYKYDKDLVLMTHFITKNITDNHGKNKTTVHGYFSSIFHGGVDSLVDLMNKSFPELGIKKTDCKEFSWIDTTIFYSGVVNFNTANFKKEILLDRSAGKKTAFSIKLDYVKKPIPETAMVKILEKLYEEDVGAGMYVLYPYGGIMEEISESAIPFPHRAGIMYELWYTASWEKQEDNEKHINWVRSVYNFTTPYVSQNPRLAYLNYRDLDLGKTNHASPNNYTQARIWGEKYFGKNFNRLVKVKTKVDPNNFFRNEQSIPPLPPHHH | 31.6 |
